The text below walks through data of US8349320 (LA JOLLA INSTITUTE FOR ALLERGY AND IMMUNOLOGY, dated 2013).

By Kd is commonly meant the concentration at which binding is half-saturated. Higher therefore signals lower affinity.

The target in assay [1] is T1, mouse BTLA expressed on cells (mouse, UniProt Q7TSA3 30-306).
T1 construct: whole, on cells; the GFP part is not described further; also called mBTLA
T1 sequence (looked up): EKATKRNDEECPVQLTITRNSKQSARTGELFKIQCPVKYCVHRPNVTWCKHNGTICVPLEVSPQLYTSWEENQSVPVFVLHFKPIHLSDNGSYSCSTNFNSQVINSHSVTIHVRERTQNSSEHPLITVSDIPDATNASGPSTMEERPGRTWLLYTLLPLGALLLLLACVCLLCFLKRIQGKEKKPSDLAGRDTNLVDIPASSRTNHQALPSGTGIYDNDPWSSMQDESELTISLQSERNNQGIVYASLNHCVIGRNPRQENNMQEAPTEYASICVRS
Put plainly: flow cytometry saturation binding, Fc fusion on cells expressing mouse BTLA (FIG. 3B). (In general: A flow cytometer gives signals particle by particle.)

The target in assay [2] is T2, human BTLA expressed on cells (human, UniProt Q7Z6A9 31-289).
T2 construct: whole, on cells; also called hBTLA
Put plainly: flow cytometry saturation binding, Fc fusion on cells expressing human BTLA (FIG. 3B).

Assay [3] has as its target T1, mouse BTLA expressed on cells. Put plainly: flow cytometry, graded hHVEM-Fc on cells expressing mouse BTLA (FIG. 3A).
Assay [4] deals with T3, full length human LIGHT expressed on EL4 cells (human, UniProt O43557 1-240).
T3 construct: whole, on cells; also called EL4-hLIGHT; hLIGHT-EL4 cells
The assay is described as follows: flow cytometry saturation binding, Fc fusion on EL4 cells expressing human LIGHT.

Assay [5] addresses T2, human BTLA expressed on cells. The assay is described as follows: flow cytometry saturation binding, Fc fusion on cells expressing human BTLA (FIG. 3A).

T3 sequence (O43557 whole entry): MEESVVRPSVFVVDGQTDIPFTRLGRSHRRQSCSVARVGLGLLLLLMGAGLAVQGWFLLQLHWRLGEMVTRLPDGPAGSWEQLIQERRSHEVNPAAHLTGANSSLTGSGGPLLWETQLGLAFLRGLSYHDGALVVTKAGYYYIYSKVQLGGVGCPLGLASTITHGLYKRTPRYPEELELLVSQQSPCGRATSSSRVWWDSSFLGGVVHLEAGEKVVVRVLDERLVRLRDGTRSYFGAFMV

B1: mouse HVEM-Fc (Fc fusion, UniProt Q80WM9 39-206, looked up)
chain: QPSCRQEEFLVGDECCPMCNPGYHVKQVCSEHTGTVCAPCPPQTYTAHANGLSKCLPCGVCDPDMGLLTWQECSSWKDTVCRCIPGYFCENQDGSHCSTCLQHTTCPPGQRVEKRGTHDQDTVCADCLTGTFSLGGTQEECLPWTNCSAFQQEVRRGTNSTDTTCSSQ
notes: extracellular domain; Expressed in insect cells (baculovirus); also called mHVEM-Fc; mHVEM:Fc; not shown: Fc region of human IgG1
Turning to B1, the figures for the Kd in assay [1] and in assay [2] were 0.024 µM and 0.027 µM, respectively.

B2: human HVEM-Fc (Fc fusion, UniProt Q92956 39-202, looked up)
chain: LPSCKEDEYPVGSECCPKCSPGYRVKEACGELTGTVCEPCPPGTYIAHLNGLSKCLQCQMCDPAMGLRASRNCSRTENAVCGCSPGHFCIVQDGDHCAACRAYATSSPGQRVQKGGTESQDTLCQNCPPGTFSPNGTLEECQHQTKCSWLVTKAGAGTSSSHWV
modifications: in the FIG. 3H assay biotinylated with NHS-PEO4-Biotin, 2 biotin molecules per HVEM-Fc (sites not given)
notes: extracellular domain; Ecto domain of the TNFR fused to Fc of human IgG1; also called hHVEM-Fc; hHVEM:Fc; not shown: Fc region of human IgG1
Regarding B2, the binding result in assay [3] is “no binding”. Further, the Kd in assay [4] is 0.011 µM; in assay [5], 0.112 µM.
